According to paper PMC10666288, “Unveiling the Catalytic Mechanism of a Processive Metalloaminopeptidase” (Biochemistry, 2023):

What was measured:
[1] = biological target: the molecule itself; assay: crystal structure; uncleaved PaPepA, sitting drop, 20 °C, PEG 3350 and ammonium nitrate; three crystal forms: apo, with MnCl2, with bestatin and MnCl2
[2] = biological target: the molecule itself; assay: dynamic light scattering; PaPepA in solution; conditions not shown (Figure S14)

B1: PepA from P. aeruginosa strain PA14 (PaPepA), uncleaved His6-tagged protein used for crystallography (enzyme, Pseudomonas aeruginosa strain PA14)
chain: MEFLVKSVRPETLKTATLVLAVGEGRKLGASAKAVDDATGGAISAVLKRGDLAGKVGQTLLLQSLPNLKAERVLLVGAGKERELGDRQYRKLASAVLSTLKGLAGADAALALGDLAVKGRGAHAKARLLVETLADGLYVFDRYKSQKAEPLKLKKLTLLADKADSAAVEQGSKEAQAIANGMALTRDLGNLPPNVCHPTFLGEQAKGLAKEFKSLKVEVLDEKKLRELGMGSFLAVAQGSDQPPRLIILQYNGAKKDQAPHVLVGKGITFDTGGISLKPGLGMDEMKFDMCGAASVFGTFRAVLELQLPINLVGLLACAENMPSGGATRPGDIVTTMSGQTVEILNTDAEGRLVLCDALTYAERFKPQSVIDIATLTGACIVALGSNTSGLMGNNEALVRQLLKAGEFADDRAWQLPLFDEYQEQLDSPFADIANIGGPKAGTITAGCFLSRFAKKYHWAHLDIAGTAWISGGKDKGATGRPVPLLTQYLLERAK
notes: Leucine aminopeptidase PepA, Pseudomonas aeruginosa strain PA14, PA14_14470, UniProt Q02RY8; also called leucine aminopeptidase from Pseudomonas aeruginosa; uncleaved PaPepA; source: E. coli BL21(DE3), purified (HisTrap FF nickel column, dialysed; not TEV-cleaved); not shown: His6 (followed by a linker and a TEV protease cleavage site), N-terminal, kept
- stoichiometry N [1]: 6

B2: PepA from P. aeruginosa strain PA14 (PaPepA), protein used for dynamic light scattering (enzyme, Pseudomonas aeruginosa strain PA14)
chain: MEFLVKSVRPETLKTATLVLAVGEGRKLGASAKAVDDATGGAISAVLKRGDLAGKVGQTLLLQSLPNLKAERVLLVGAGKERELGDRQYRKLASAVLSTLKGLAGADAALALGDLAVKGRGAHAKARLLVETLADGLYVFDRYKSQKAEPLKLKKLTLLADKADSAAVEQGSKEAQAIANGMALTRDLGNLPPNVCHPTFLGEQAKGLAKEFKSLKVEVLDEKKLRELGMGSFLAVAQGSDQPPRLIILQYNGAKKDQAPHVLVGKGITFDTGGISLKPGLGMDEMKFDMCGAASVFGTFRAVLELQLPINLVGLLACAENMPSGGATRPGDIVTTMSGQTVEILNTDAEGRLVLCDALTYAERFKPQSVIDIATLTGACIVALGSNTSGLMGNNEALVRQLLKAGEFADDRAWQLPLFDEYQEQLDSPFADIANIGGPKAGTITAGCFLSRFAKKYHWAHLDIAGTAWISGGKDKGATGRPVPLLTQYLLERAK
notes: Leucine aminopeptidase PepA, Pseudomonas aeruginosa strain PA14, PA14_14470, UniProt Q02RY8; probably the cleaved one; also called leucine aminopeptidase from Pseudomonas aeruginosa; source: E. coli BL21(DE3), purified (HisTrap FF nickel column)
- stoichiometry N [2]: 6
